Measured values from patent US20210069342A1 (LEGOCHEM BIOSCIENCES, published 2021).

Legend:
[1] = target: T1, human ROR1 expressed on the cell surface (human, UniProt Q01973 30-937); assay: flow cytometry on HCC1806 cells (breast cancer), C2E3 IgG, FITC anti-human Fc detection
T1 construct: whole, on cells; also called cell surface-expressed ROR1 antigen; ROR1 on JeKo-1, Mino, CHO-human ROR1, MC38-human ROR1 and other cancer cell lines
Protocol: (§1) FACS analysis (FACSCalibur, BD Biosciences) was used to analyze the binding of the anti-ROR1 antibody of the present invention to ROR1 in the above cell lines.
(§2) Specifically, the respective cell lines were dissociated and washed in PBS, then the numbers of cells were counted and adjusted to 2×10⁵ cells/200 PBS. Then, they were treated with 10 /mL of the antibody of clone name C2E3 of the ROR1 monoclonal antibodies prepared in Embodiment 3, and reacted for 1 hour at 4° C. After the reaction, the cells were washed in PBS, then FITC-marked constant region (Fc) specific antibody (Goat anti-human IgG FITC conjugate, Fc specific, Sigma, F9512, concentration 20 mg/ml) was suspended in 2 /1×10⁵ cells/200 PBS and reacted for 1 hour at 4° C. After reacting, the cells were washed with PBS and analyzed with the FACSCalibur equipment. The negative control was only treated with FITC-marked constant region (Fc) specific antibody. To compare the degree of ROR1 expression among the respective cancer cell lines, the quotient of dividing the shifted readings for the experimental group treated with the ROR1 monoclonal antibody (C2E3) of the present invention by the shifted readings for the control group (MFI Ratio: MFI of anti-ROR1/MFI or 2nd Ab) is indicated.

[2] = target: T1, human ROR1 expressed on the cell surface; assay: flow cytometry on HCC1143 cells (breast cancer), C2E3 IgG, FITC anti-human Fc detection
Protocol: as §1, §2

[3] = target: T2, recombinant mouse ROR1 protein (Acrobiosystems, RO1-M5221) (mouse, UniProt Q9Z139 30-403); assay: ELISA, wells coated with recombinant mouse ROR1 protein, IgG titrated, HRP anti-Fab detection, OD (450-650nm)
T2 construct: Bought protein; also called mouse ROR1 antigen
T2 sequence (Q9Z139 30-403 limits assumed): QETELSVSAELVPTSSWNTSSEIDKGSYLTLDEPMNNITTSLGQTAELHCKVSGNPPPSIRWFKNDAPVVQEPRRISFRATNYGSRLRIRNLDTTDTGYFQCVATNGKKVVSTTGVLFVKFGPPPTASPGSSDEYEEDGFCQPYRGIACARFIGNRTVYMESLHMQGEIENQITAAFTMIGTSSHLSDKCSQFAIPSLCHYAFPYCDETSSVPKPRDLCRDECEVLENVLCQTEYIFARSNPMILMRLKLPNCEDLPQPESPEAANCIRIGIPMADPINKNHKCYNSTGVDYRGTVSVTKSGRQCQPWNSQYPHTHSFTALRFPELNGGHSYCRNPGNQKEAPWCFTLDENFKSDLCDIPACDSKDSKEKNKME
Protocol: Anti-ROR1 antibody antigen binding affinity was assessed using an ELISA-based solution binding assay. Specifically, a 96-well microtiter plate (Nunc-Immuno Plates), NUNC) was coated for 16 hours at 4° C. with the ROR1 protein described below at a concentration of 1 in PBS solution, and non-specific binding sites were blocked for 2 hours with 3% BSA (bovine serum albumin). Here, the ROR1 protein used was, in the case of human ROR1, the ROR1-Fc or recombinant human ROR1-His (Sino Biological, 13968-H08H) of Embodiment 1. The ROR1-His used in ELISA, as stated in the above sentence, was a protein from the Sino Biological company (13968-H08H), and the ROR1-His of Embodiment 1 or recombinant mouse ROR1 protein was used (Acrobiosystems, RO1-M5221-100 )
Subsequently, the anti-ROR1 antibodies prepared in Embodiment 3 were added at the concentrations stated in FIG. 2 to a 96-well microtiter plate, and binding capacity was analyzed using ELISA as follows. Specifically, after incubating for 2 hours, the plate was washed 5 times with PBS containing 0.05% Tween 20, then HRP-conjugated Fab multiclonal antibody reagent (Perce, 31414) was diluted to 1:10,000 and placed in the washed microtiter plate. After reacting for 1 hour at 37° C., the ROR1 antibodies bonded to the plate were detected. After the reaction, color development was performed using TMB (Tetramethylbenzidine, Sigma, T0440). The enzymatic reaction was stopped using 0.5 mol/L sulfuric acid, and absorbance at 450 nm and 650 nm was measured (450 nm-650 nm) using a micro plate reader (Molecular Device)

[4] = target: T1, human ROR1 expressed on the cell surface; assay: flow cytometry on BT474 cells (breast cancer), C2E3 IgG, FITC anti-human Fc detection
Protocol: as §1, §2

[5] = target: T1, human ROR1 expressed on the cell surface; assay: flow cytometry on BT20 cells (breast cancer), C2E3 IgG, FITC anti-human Fc detection
Protocol: as §1, §2

[6] = target: T1, human ROR1 expressed on the cell surface; assay: flow cytometry on MCF7 cells (breast cancer; the text calls MCF7 a cell line which does not express ROR1), C2E3 IgG, FITC anti-human Fc detection
Protocol: as §1, §2

[7] = target: T1, human ROR1 expressed on the cell surface; assay: flow cytometry on 697 cells (ALL), C2E3 IgG, FITC anti-human Fc detection
Protocol: as §1, §2

[8] = target: T1, human ROR1 expressed on the cell surface; assay: flow cytometry on MC38-human ROR1 cells, IgG titrated, FITC anti-human Fc detection, MFI ratio to 2nd Ab alone; log axis whose first tick is printed 0
Excerpt: For this experiment, using cell lines (FIG. 5 and FIG. 7, respectively) transiently (CHO-human ROR1, CHO-human ROR2, CHO-mouse ROR1) or stably (MC38-human ROR1) transfected with ROR1 gene to achieve artificial over-expression of ROR1 protein, an ROR1-expressing cell line (JeKo-1, Mino) (FIG. 6), a non ROR1-expressing cell line (MCF7) (FIG. 6) and a FACSCalibur (BD Biosciences) device was used to measure the degree to which anti-ROR1 antibody and ROR1 were bound, as follows. […] JeKo-1, Mino, CHO-human ROR1, CHO-mouse ROR1 and MC38-human ROR1 are all cell lines which express human ROR1 or mouse ROR1.
Specifically, after dissociating each cell line and washing in PBS, the number of cells was counted and adjusted to 2×10⁵ cells/200 PBS. Then the respective ROR1 monoclonal antibodies prepared in Embodiment 3 were diluted 5 times from 10 /mL or 10 /mL, then reacted for 1 hour at 4° C. After the reaction, the cells were washed in PBS, then FITC-marked constant region (Fc) specific antibody (Goat anti-human IgG FITC conjugate, Fc specific, Sigma, F9512, concentration 20 mg/ml) was suspended in 2 /1×10⁵ cells/200 PBS and reacted for 1 hour at 4° C. As for identification of the degree of expression of the transiently over-expressed human ROR1, human ROR2 and mouse ROR1, a commercially available FACS analysis antibody (anti-ROR1: R&D Systems, FAB 2000G, anti-ROR2: R&D, FAB20641P) was used. After reacting the cells were washed in PBS and analyzed using a FACSCalibur device. The negative control (2nd Ab) was only treated with FITC-marked constant region (Fc) specific antibody. The shifted readings for the respective experimental groups treated with ROR1 monoclonal antibody were compared against the shifted reading for the control group (MFI Ratio: MFI of anti-ROR1/MFI of 2nd Ab).

T1 sequence (Q01973 30-937): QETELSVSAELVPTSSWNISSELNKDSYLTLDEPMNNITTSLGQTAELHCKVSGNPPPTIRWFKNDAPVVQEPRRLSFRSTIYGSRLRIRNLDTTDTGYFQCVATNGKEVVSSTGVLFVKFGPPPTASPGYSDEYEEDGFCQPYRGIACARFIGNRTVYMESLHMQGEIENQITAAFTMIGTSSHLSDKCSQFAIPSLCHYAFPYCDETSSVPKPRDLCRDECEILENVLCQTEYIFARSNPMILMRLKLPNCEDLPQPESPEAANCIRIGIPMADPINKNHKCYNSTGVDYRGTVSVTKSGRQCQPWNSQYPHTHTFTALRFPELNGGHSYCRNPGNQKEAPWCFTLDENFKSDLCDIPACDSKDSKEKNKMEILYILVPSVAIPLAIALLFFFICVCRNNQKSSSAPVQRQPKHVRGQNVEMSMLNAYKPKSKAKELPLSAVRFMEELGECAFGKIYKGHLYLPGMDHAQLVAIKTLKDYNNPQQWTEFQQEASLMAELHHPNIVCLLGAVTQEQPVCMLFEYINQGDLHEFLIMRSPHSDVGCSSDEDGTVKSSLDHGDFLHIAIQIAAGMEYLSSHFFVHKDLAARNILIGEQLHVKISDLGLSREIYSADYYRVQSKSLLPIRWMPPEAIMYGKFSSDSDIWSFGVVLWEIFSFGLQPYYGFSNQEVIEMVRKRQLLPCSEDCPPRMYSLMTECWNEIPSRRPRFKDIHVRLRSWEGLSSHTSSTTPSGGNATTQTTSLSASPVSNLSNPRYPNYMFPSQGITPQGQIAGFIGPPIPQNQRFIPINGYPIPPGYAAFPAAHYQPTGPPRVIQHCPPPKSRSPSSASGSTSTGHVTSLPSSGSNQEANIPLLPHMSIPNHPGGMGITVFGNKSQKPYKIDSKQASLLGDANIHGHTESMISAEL

B1: anti-ROR1 IgG antibody C2E3 (antibody, V domains shown)
VH: EVQLLESGGGLVQPGGSLRLSCAASGFTFSNYAMSWVRQAPGKGLEWVSSISHNSGSTYYADSVKGRFTISRDNSKNTLYLQMNSLRAEDTAVYYCAKFISARKSLGRSYSNGMDVWGQGTLVTVSS
VL: QSVLTQPPSASGTPGQRVTISCTGSSSNIGSNDVTWYQQLPGTAPKLLIYADSKRPSGVPDRFSGSKSGTSASLAISGLRSEDEADYYCGTWDYSLSGYVFGGGTKLTVLG
notes: Full IgG form (human IgG1 constant region, lambda light chain), expressed in CHO-S cells
Mean Fold Ratio (MFI of anti-ROR1 / MFI of 2nd Ab) [1]: 2.3
Mean Fold Ratio (MFI of anti-ROR1 / MFI of 2nd Ab) [2]: 3.2
EC50 (read off the curve) [3]: ~0.3 nM
Mean Fold Ratio (MFI of anti-ROR1 / MFI of 2nd Ab) [4]: 1.7
Mean Fold Ratio (MFI of anti-ROR1 / MFI of 2nd Ab) [5]: 3
Mean Fold Ratio (MFI of anti-ROR1 / MFI of 2nd Ab) [6]: 1.1
Mean Fold Ratio (MFI of anti-ROR1 / MFI of 2nd Ab) [7]: 12
EC50 (read off the curve) [8]: ~0.1 µg/mL
